Measurements published in patent US20220289816A1, “IMMUNOTHERAPY WITH B*07 RESTRICTED PEPTIDES AND COMBINATION OF PEPTIDES AGAINST CANCERS AND RELATED METHODS” (Immatics Biotechnologies GmbH, priority 2018, published 2022).

The substances below were run against HLA-B*07 (Homo sapiens, UniProt P01889) (assay: MHC binding assay (UV-ligand exchange, ELISA of stabilized MHC complexes)). Settings: peptide exchange yield on HLA-B*07, UV-ligand exchange.
Source text: Candidate peptides for T cell based therapies according to the present invention were further tested for their MHC binding capacity (affinity). The individual peptide-MHC complexes were produced by UV-ligand exchange, where a UV-sensitive peptide is cleaved upon UV-irradiation and exchanged with the peptide of interest as analyzed. Only peptide candidates that can effectively bind and stabilize the peptide-receptive MHC molecules prevent dissociation of the MHC complexes. To determine the yield of the exchange reaction, an ELISA was performed based on the detection of the light chain (β2m) of stabilized MHC complexes. The assay was performed as generally described in Rodenko et al. (Rodenko et al., 2006)
96 well MAXISorp plates (NUNC) were coated over night with 2 ug/ml streptavidin in PBS at room temperature, washed 4× and blocked for 1 h at 37° C. in 2% BSA containing blocking buffer. […] Peptide-MHC monomers of the UV-exchange reaction were diluted 100-fold in blocking buffer. Samples were incubated for 1 h at 37° C., washed four times, incubated with 2 ug/ml HRP conjugated anti-[…] for 1 h at 37° C., washed again and detected with TMB solution that is stopped with […]. Absorption was measured at 450 nm. Candidate peptides that show a high exchange yield (preferably higher than 50%, most preferred higher than 75%) are generally preferred for a generation and production of antibodies or fragments thereof, and/or T cell receptors or fragments thereof, as they show sufficient avidity to the MHC molecules and prevent dissociation of the MHC complexes.

| Substance | Peptide exchange |
| --- | --- |
| 342 (RPRPPKVL; listed as Homo sapiens) [compound 342] | +++ (>50 = +++) |
| 247 (SPVGVGQRL; listed as Homo sapiens) [compound 247] | +++ (>50 = +++) |
| 215 (IPVAIKEL; listed as Homo sapiens) [compound 215] | ++ (>20% = ++) |
| 50 (PEKARAFL; listed as Homo sapiens) [compound 50] | +++ (>50 = +++) |
| 29 (APLRVHITSL; listed as Homo sapiens) [compound 29] | ++++ (>75% = ++++) |
| 174 (IPVTSSVTL; listed as Homo sapiens) [compound 174] | ++++ (>75% = ++++) |
| 78 (HPSQESPTL; listed as Homo sapiens) [compound 78] | +++ (>50 = +++) |
| 160 (IPVSHPVLTF; listed as Homo sapiens) [compound 160] | ++ (>20% = ++) |
| 54 (VPSCGRSVEGL; listed as Homo sapiens) [compound 54] | +++ (>50 = +++) |
| 144 (RPVQGIPTY; listed as Homo sapiens) [compound 144] | +++ (>50 = +++) |
| 380 (SPYPGSAAF; listed as Homo sapiens) [compound 380] | ++++ (>75% = ++++) |
| 85 (MPMQDIKMILKM; listed as Homo sapiens) [compound 85] | +++ (>50 = +++) |
| 497 (YVVKPLHPF; listed as Homo sapiens) [compound 497] | +++ (>50 = +++) |
| 217 (SPGDKRLAAYL; listed as Homo sapiens) [compound 217] | +++ (>50 = +++) |
| 294 (VPKPAIPSSSVL; listed as Homo sapiens) [compound 294] | ++++ (>75% = ++++) |
| 10 (SPMEAELVRRIL; listed as Homo sapiens) [compound 10] | ++++ (>75% = ++++) |
| 81 (IAYPSLREAAL; listed as Homo sapiens) [compound 81] | ++ (>20% = ++) |
| 336 (YPLQGPGLLSV; listed as Homo sapiens) [compound 336] | +++ (>50 = +++) |
| 126 (MPREDAHF; listed as Homo sapiens) [compound 126] | + (>10% = +) |
| 373 (LPKPDLPQLI; listed as Homo sapiens) [compound 373] | + (>10% = +) |
| 463 (LPTDLFNSVM; listed as Homo sapiens) [compound 463] | ++++ (>75% = ++++) |
| 209 (KIEQIRAVL; listed as Homo sapiens) [compound 209] | +++ (>50 = +++) |
| 104 (RPLPNSVIHV; listed as Homo sapiens) [compound 104] | +++ (>50 = +++) |
| 360 (SPASRSISLL; listed as Homo sapiens) [compound 360] | ++++ (>75% = ++++) |
| 43 (APTPRPKVL; listed as Homo sapiens) [compound 43] | ++++ (>75% = ++++) |

| Substance | Peptide exchange |
| --- | --- |
| 168 (SPSGQRDVSL; listed as Homo sapiens) [compound 168] | ++++ (>75% = ++++) |
| 338 (MPATPSLKV; listed as Homo sapiens) [compound 338] | +++ (>50 = +++) |
| 202 (SPSREASAL; listed as Homo sapiens) [compound 202] | +++ (>50 = +++) |
| 236 (TPELKSSIL; listed as Homo sapiens) [compound 236] | +++ (>50 = +++) |
| 109 (LPRALMRST; listed as Homo sapiens) [compound 109] | +++ (>50 = +++) |
| 110 (YPSSPASAV; listed as Homo sapiens) [compound 110] | ++++ (>75% = ++++) |
| 136 (QPDHAGIFRVF; listed as Homo sapiens) [compound 136] | ++++ (>75% = ++++) |
| 267 (MPVPGILL; listed as Homo sapiens) [compound 267] | +++ (>50 = +++) |
| 349 (QPRDGWPMML; listed as Homo sapiens) [compound 349] | ++++ (>75% = ++++) |
| 371 (APRSPGQVTPRGL; listed as Homo sapiens) [compound 371] | +++ (>50 = +++) |
| 285 (RITWKGLLL; listed as Homo sapiens) [compound 285] | +++ (>50 = +++) |
| 152 (SSASFSSELFRH; listed as Homo sapiens) [compound 152] | +++ (>50 = +++) |
| 60 (RPYSIYPHGVTF; listed as Homo sapiens) [compound 60] | ++++ (>75% = ++++) |
| 15 (KPGFNISIL; listed as Homo sapiens) [compound 15] | ++++ (>75% = ++++) |
| 18 (MALSVLRLAL; listed as Homo sapiens) [compound 18] | ++ (>20% = ++) |
| 357 (LPPHIFAI; listed as Homo sapiens) [compound 357] | ++ (>20% = ++) |
| 335 (VPPQNPRPSL; listed as Homo sapiens) [compound 335] | +++ (>50 = +++) |
| 88 (KPSAVKDSIY; listed as Homo sapiens) [compound 88] | ++ (>20% = ++) |
| 379 (GPRQVLFPL; listed as Homo sapiens) [compound 379] | ++++ (>75% = ++++) |
| 461 (MPHLGPGILL; listed as Homo sapiens) [compound 461] | ++++ (>75% = ++++) |
| 304 (SPLIGDFPAF; listed as Homo sapiens) [compound 304] | ++ (>20% = ++) |
| 135 (MPRLLRLSL; listed as Homo sapiens) [compound 135] | +++ (>50 = +++) |
| 291 (SPSKSLEM; listed as Homo sapiens) [compound 291] | +++ (>50 = +++) |
| 270 (SPRGTTSTL; listed as Homo sapiens) [compound 270] | +++ (>50 = +++) |
| 496 (MPAVSGPGPLF; listed as Homo sapiens) [compound 496] | +++ (>50 = +++) |

| Substance | Peptide exchange |
| --- | --- |
| 80 (SALPTTISF; listed as Homo sapiens) [compound 80] | +++ (>50 = +++) |
| 498 (RPQPQPRPAL; listed as Homo sapiens) [compound 498] | ++++ (>75% = ++++) |
| 183 (VPRRPARAL; listed as Homo sapiens) [compound 183] | +++ (>50 = +++) |
| 315 (APVVFPAL; listed as Homo sapiens) [compound 315] | ++++ (>75% = ++++) |
| 323 (TPHGITDIL; listed as Homo sapiens) [compound 323] | ++++ (>75% = ++++) |
| 237 (LPRAGGAF; listed as Homo sapiens) [compound 237] | ++++ (>75% = ++++) |
| 156 (GSRPVTGSV; listed as Homo sapiens) [compound 156] | +++ (>50 = +++) |
| 268 (EPLSVTASY; listed as Homo sapiens) [compound 268] | ++ (>20% = ++) |
| 154 (RPPPSRRAVL; listed as Homo sapiens) [compound 154] | +++ (>50 = +++) |
| 172 (SAQSLHPVL; listed as Homo sapiens) [compound 172] | +++ (>50 = +++) |
| 95 (RTKEEINEL; listed as Homo sapiens) [compound 95] | ++ (>20% = ++) |
| 213 (RPYQDAPVA; listed as Homo sapiens) [compound 213] | ++++ (>75% = ++++) |
| 259 (VPMPGVQAV; listed as Homo sapiens) [compound 259] | ++++ (>75% = ++++) |
| 139 (LVILQHQAM; listed as Homo sapiens) [compound 139] | +++ (>50 = +++) |
| 332 (SPYAGSTAF; listed as Homo sapiens) [compound 332] | ++++ (>75% = ++++) |
| 250 (APAAPAAVPS; listed as Homo sapiens) [compound 250] | ++ (>20% = ++) |
| 473 (LPGEREAAL; listed as Homo sapiens) [compound 473] | ++++ (>75% = ++++) |
| 239 (VLPRAGGAFLM; listed as Homo sapiens) [compound 239] | +++ (>50 = +++) |
| 378 (SPRQPRLDF; listed as Homo sapiens) [compound 378] | ++++ (>75% = ++++) |
| 272 (SSPRGTTSTL; listed as Homo sapiens) [compound 272] | +++ (>50 = +++) |
| 105 (RPRYETGVCA; listed as Homo sapiens) [compound 105] | ++++ (>75% = ++++) |
| 206 (TPRIGPKVSL; listed as Homo sapiens) [compound 206] | +++ (>50 = +++) |
| 69 (RPEDGRPRL; listed as Homo sapiens) [compound 69] | +++ (>50 = +++) |
| 130 (GAYDKARYL; listed as Homo sapiens) [compound 130] | ++ (>20% = ++) |
